Reference: the domain aggregation screens of Martell et al. (2025)

Test: soluble fraction after stress (log2 fold change); higher = more stays soluble; pooled small domains, quantitative proteomics
Settings: stress: 50 degC
How it was run: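 Pooled custom libraries of small protein domains were measured in a high-throughput format, with quantitative proteomics as the read-out. Each library was stressed at 50°C. Aggregation propensity is given as the base-two logarithm of the fold change in how much of each protein stays soluble after the stress. Higher values mean a larger share of the protein remains in solution.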

| Sequence | soluble fraction (log2) |
| --- | --- |
| HMIMTEKEKKLLNRYIMHDTIHKLYHEQNKSMRWIADNLGINFRTVQKYLDMDSGEFQKYSESISNR | -0.48 |
| HMIMTIYEYIARNNPTGAKRVIESFGYVVTQPKKMGDNLRMLVAQEGEPALKAVVDLHPDKDLILEV | -2.87 |
| HMINAQETEIYRFLIEKANRLYSMVLGLKREELMTATRQFEEEVKHSSIHHLPKIYQAFSSYLELLERG | -0.478 |
| HMINDKLQHLFSLFPAMDKELKRKGITRQILWVEYKKQYPLGFGRSQFNSYFAAWKAQVSPS | -1.52 |
| HMINFLSKREIEVLRLVADGLSNRDVGQYLFISESTVKRHLSTIYEKLAVKSRTQAIDHARRADL | -3.91 |
| HMINGTITFYDDTTLKGELSSLDTKYLFIIPNGLVMPEKIAVSDIEYFNLDNGITLIQDGISKQTY | -1.25 |
| HMINLGDLEVGHTYHTRMPILQNDLKYSHKSPIQIVAEHSIVYGVRVYIGFLNEHRVLVTADDV | 0.0223 |
| HMINLRTALNNAGVMQKELSDILYMTPQDVNRRFSGVTKWKPLEKRAIMQFLEDRGFEYTEEQLF | -0.532 |
| HMINLVPFELKFITAQVLDDIIKKIGINADTIILDINPKKIWVYAGEQELSDIQNIVKNVDVEDNI | -0.443 |
| HMINVLTPKQIEATTIAVKYGYYENPRTVSMRELSEISGIARSTLQEHLSKAEAALMILAAKSQL | -0.338 |
| HMINVVDEVIKHLETNIISGFWAPGQKIDSEATLSKQLNVSRASIHTAIQQLIATGVLESFQGKGTFVRS | -0.624 |
| HMIPDGKWKEDPISDGQKNFINSLIEQAIDAGQDELGAEAKKYLASGEATKGNASAMIDKLKSAL | 0.392 |
| HMIPDMSLELAMSEQTSKGDLYGDLPNDKLALMFNAISKKVPHTDDHKRKMVAIQTILESRAS | -0.251 |
| HMIPEGKWMEDPISEGQIKFIETLIKQAIDSGQDALGAEAKQYLSSGEATKGNASSMIDKLKDAL | 0.243 |
| HMIPEILNGYTKWGDDEPFEDHAGPFYMKMMPSTGRHLSAFIPEQRHMNGGGFLHGGMLMSFADYALFVI | 0.00747 |
| HMIPEKEISYMMPDGFMPKELKIIHITESGRKQIYSAAHKPLDLVNVKAPFVPNTKVQIYINDVPIEELKI | -0.418 |
| HMIPKDKQAWIALTYIYGVGRTTSMEILKKAQVGEEIRMKDLTEEEVTRIRNIIDKEYEVEGDLRRN | -0.292 |
| HMIPNEKEAARWDALTAEHTAKLNALEGDALDKVGSHEDVSIKRAGVGDAAFREKILSRTHPDDLERALST | 0.0829 |
| HMIQHFARKRRQLELAVQRLSGRMAETNGQVTADMQRLIQQVKALVAELSHVFSRAYLRRVLGGVALVIGS | -0.104 |
| HMIQLTDAEFNELVTYIKKNYGINLIKKRLLIEARMYSVLAKHGFTSFTEYINLIKRDPAELNTMLNKLTT | -1.72 |
| HMIQMRVKVPKNIAGGSLMGAHHFVKSALARTNPGGSTSNYKIQATDGTPLTLGDLTARQYDEVLIISG | 0.0101 |
| HMIQTKKVTFTVEPTVNFEKINISGIEFKINSGSSITAIYEKNSHNFDEVLDFLKQKGVKILDIVTED | -0.118 |
| HMIRILIVDDSAFMRKLLSDVFEEDKNFVVVDTARNGQDAVEKVKRLKPDLVTMDVEMPVMDGLTAVEIIM | -0.36 |
| HMIRSNLAEQAYAQLKALIHDFQLLPGDRFSENEMGTRLGVSRTPVREALFRLRNEGFLEVESKAGWYVK | -2.38 |
| HMISAADLQTYLKGMDYPAGREDLVAHAQRNNAPESVITILQGFSDRTYRSAAEVSEEFGRE | 0.194 |
| HMISADSSKVDTLVQVYSNMKPIQAAQVFEKMDEDLVIEILSRMKKKNAADILNLIKTEKAQVFAEKYA | 0.0124 |

| Sequence | soluble fraction (log2) |
| --- | --- |
| HMISAEPVGEDLFKVAFPFLGGSTVFEKTIEQFIEEHPSKRIDHIYTVPNPLRLKKADALIFYIITEEK | -1.02 |
| HMISASDLQTYLKGMDYPARKEDLIVHAQRNNAPESVIAAIRQFSDRTYQSAADVSEEFGKI | 0.19 |
| HMISDEELLVSTKKEIMSLATVLTKTDKKDDAIAIMKEYDPAANPNRIKDVNKAKELLERLQKLG | -0.125 |
| HMISDISEIEAIIVEVLKVFPNQLQEYLDGKEKILSFFVGQVMQRTKGRANPSLVNEILKEKIKN | 0.0377 |
| HMISEAEGTILQLLKEADGTLPFTYKSDADEIKKVFGMSKKNFKRTLTELIEAKKIQLLDDAIVL | -0.459 |
| HMISEKEIKIIEDILARWNGKLTWDDFTSKVAKKLNLPSLSKFTLMGYPEIKQAFLTRKQTLK | -0.328 |
| HMISENFVEAKILLTEDNRPKSLEILKDIIRQHDKVYSPLSLFLILDEDLEENKEIILEYFDLVLS | -0.185 |
| HMISESLLDEIPGLGETRRNSLLREFGSVAMIRKASAEEIASRVRGIGAEFAAAIHDFLQTH | -0.0611 |
| HMISFHEYLTQLLDEKGLTKAQVITDSNIQKNYGYQIFDGSKTPSRDKVIAIALAMQLTLDEANRLLHLSN | -1.47 |
| HMISFTDLEHIEKMIENVLYTKTPLNLPPTDAKIRKIEHQIARRYGLNSESFGDEPRRFVVVYPNEERE | -0.625 |
| HMISKAQLFSEEELTELYRATGYQLENDPEIHREQFEALQAVRAKIEYAVPDVQEKLEQEQNLGQQ | 0.295 |
| HMISKRFQVDEENSNNRVDIFLANNLDSISRGIVQQLILDGKVLVNGETVKRNHLLKTNDEVDISFEI | 0.298 |
| HMISRDPYDAGAIKRHFSASGLFSSKELAHYLGKSVSTAKNVLSDLQQQGIVEMVGQGPATKYRFI | 0.343 |
| HMISSRDAAVIGLVENIQRAQLNAIDESSGFKHLMETYNLESKEIALLVGKSRSYVSNSLRLSK | -0.0196 |
| HMISTVFYVDVKGEVHHPGVYQMKAENRVKDLIEAAGGFTPLADDQKLNLAQLLEDQMVIVVPKKGEEV | 0.278 |
| HMISVTNRTGTGLNDVKVEVFPVGRQMVFSATVFRVESEATNRFSLGELRGSDGTPFNQRVHRPESI | 0.188 |
| HMITAEQENILFEKASDDISNNIINKGIWTKAYSQAGGDESKQKAIYIDLLVNYYKMLIKAGEEFEDI | -1.39 |
| HMITALLPGTVLIREFDGRDYHVTVATDGRFEMDGHKYPSLSAVAKHITGTQWSGPAFFGLN | -1.75 |
| HMITASNYFIEVERIGIETLPETLKKGHDLVVKSTSNGTNWANYQTSEGIKKVIDLYFQKLNEYANTV | -0.749 |
| HMITDSSEIEAMVDALVKENPGQAEQYKDGNMKVAGWFIGQIMKVSKGKANPQLVGDLLKKKLG | 0.353 |
| HMITERVPVPDLTGMPLMEAIKTLNSSKLQYQVVGSVIEGDENRIIDQTPKPDIMVSEKSIVLLYLETYRG | -0.509 |
| HMITIDADTGKRVYTRKEVADLVGASTQSIRLWEDAGAIPASVRDEGGYRYWYEEDLEAIKAYAS | -0.19 |
| HMITKAIELAEEAEKETVWLGVWEHNHPAQKFYQSLGFVKTDEHDFYMGNERHTDYTMTKQLK | -0.138 |
| HMITLKKRRQEAILEIIEKYDLSTQDELLQKLKDSGFDATQATVSRDIKELRLVKTMGANGQYKYAVT | -0.403 |
| HMITMADKIDTALSEMAANNEKINVSQVAKRLGISNSAIYKFNPEKIPDIQTAQKRQKHKAEAIAVGTEN | 0.215 |
| HMITMWYYKKDGNIIGPASARKIASMRELGIITDSTPVSRKRNAKNWETFGGLSEKINLESSQWD | -1.9 |

| Sequence | soluble fraction (log2) |
| --- | --- |
| HMITNEDINIKKLLVVMKDTPLSANEIMDKLNIKSKETLRNMYLDPAIKKGLINLTIPDKPTSKNQKYYK | -0.0903 |
| HMITNESEIERIVEAIISKNPESIAQYRSGITKVLGFLVGQVMKETKGRANPALVNRIIISKME | -0.281 |
| HMITSELALVKLVVKGANRVEALRVAETFRARALDVTLSSFVFELTGKPSKLDAFIGLMRSLGDTEILKR | -4.06 |
| HMIVEIVPSALHGERVDRIVAFILDVSRSVASGLVERGAVHVDGSVETSGKVRLVEGQEVSVDPSQVPG | -0.46 |
| HMIVNEQEQTFIKAMRDDDFNTILELKMKGYQPSDNVLKSLQPDISSTTFIAAAKIFQMERMLK | 0.218 |
| HMIVSVPNVRGMGESKAAAALQNRGLLVSIDYESSTSASQGEVIRQSISPGTEVTKGSSITIIIAVSPN | -0.0262 |
| HMIVVMQPGATKEQVQAVIDRVAEFGFQTKLAPGAERMVIGVVGSPLPDTLKEALERLPGVEEVIRVSKR | -0.0691 |
| HMIVVTSPQVTDERIAEIVAFIEKHGVQAHVSRGTDRTVIGIIGKADPVLAEHLRSMQGVENVIKIS | -0.0652 |
| HMIYKLTLLRDLPEAKAGFDFYLRGGLASHDGEEWFSWVTREPIYARLYWLYVEKREEWVLVEETDI | -4.46 |
| HMIYMIDPNDEIAVKLDEIYQRYLNRTIDPEGLIFFYNQIRNAQMGYSDVEKRILESPEYVSIPK | -0.242 |
| HMIYQNVINLLKNRLNSSIYNIGDLLPSEKELAEHYDVSRNTLRKALKTLEEEGMIERRHGSGTYLRNK | -0.969 |
| HMIYWGTMVDKIYEVLSLAGKPLSLMEIYQQVKVFFPNSTKSSIEASMRLDARHRFKYDVEGHVYSLVD | -1.3 |
| HMIYYTEEELVKRYIDFSNYLGKKEGASDVDFKKYAVEFGIPSRDHYNRKFITLFNLKIKAGYKPIRH | -0.763 |
| HMKAAQDQDQAATLLQKATGVNQDQAKLAATVLFKEQSVTPIRQAIASGDYYQAYQDAKSLQQQ | -0.144 |
| HMKADIEQVQRAFDTLDPKNQQLVLDAMKAATAELDPNSDQFKTNTEFINDNQKALDRHAKAS | 0.125 |
| HMKAGAVFNEGDVLYPKIGGLKLMAAAGEGGKVVATLAKTDEMIYMGEEQSGFVKVESGSGSGWVKKILVA | 0.366 |
| HMKAGEDAVQKAVLEAVAESAAAVADYKAGSERALNFIVGKVMKKTRGKASAAEVHRLVREEVDR | 0.0904 |
| HMKAILHQESRSGFANATVIGGLDKFLDTNWNQLSKYIKKIETPYSDRSLEDRKIWISTILGILSTEI | 0.45 |
| HMKALHEEIAEKIQEQILRSNLAPGDKLDTELELAARYGVSRSTIRQALIQLESAGLIDRLHGRGTFVAD | 0.425 |
| HMKAPDSQYKPLTDFQTDASFQKLDAYLRNRYPAMLANAVVYDVLRTPDAISYRVNYQVDNKMITINAAVT | -0.126 |
| HMKAPLTFVIEGKEYEAFDQYKTGAELKQLAGIPLDTELFLSISKPYQDELIENEKQVNLARPETEYFFVK | -0.0489 |
| HMKAQTVPQFVGMTMTEAEEKASELGITLIEGAVVDSVEPKDTILTQDVDEGTEITGKMEIMVTISS | -0.28 |
| HMKARLRRVFQIYYGDAYSIMKALKETFPLQTIVHEPRTNSIVVDTPDEETATKIGDVVSAL | -0.392 |
| HMKDANIQIGKRLREARLNMNLEKSEIADVLGVTVEHYRKLEAGVMGISVDKVLTLYHKYGIDPTYLITG | -1.19 |
